Measured values from the NTF2 design screens of Basanta et al. (2020).

Assay: protease stability score; higher = more stable; yeast display proteolysis, trypsin and chymotrypsin;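 also: relative to predicted unfolded state with 0 unfolded-like and 1 meaning tenfold more protease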

Sequence: SELEKHLEDVASMWLKVIQTGDWDKLFELADPNVRFEQIYGDKKVELHGREEMIEWLRKFMEQMRTEHRIHSMEVQGDKVHLDTRVILDFNGVRIHLETRVIIIVVNGRLHSYSEHVK
- protease stability score: 1.31

Sequence: SELEKLAEEMLELFIEIFLTGDWRTFLRLADPHTRLNVDGKNNHGREEVRRHLEEELRQMRWHDVKIHDFDVIGEKAHVRLRVDGIINGRRIDFEMELEITVVNGVIKDVRVRRR
- protease stability score: 1.48

Sequence: SELEKLLLDIARKLIHSYLTGDWRTFQELADPNVKIRVVVGDKEERIHGRENIIEWLERERKQYDHIEVRIDDERTIGDKLHIDGTFIIRVDGKTRFSRVEIHLLIIDGKVTSLEFHEK
- protease stability score: 1.07

Sequence: SELEKLSHELARLLIENWETGDWKRFIDLIDPHAKLHIGDKDHIGREEITRFLKEVWHRFDHIEMRIHHIKVIGNYAHSDGEMIININGQERRHDVEIIVVVVNGVVHSVEIHIE
- protease stability score: 1.9

Sequence: SELEKYSKLMLDLILHSRLTGDEEHHEKLMDPNVRIEIGDKELHGRELAVKWMSHWRLEELRVRHIHNQGDKINVDVEEVETVDGVRIRFRSELIILKVDGQWLNHSIITR
- protease stability score: 1.16

Sequence: SELEQELKHFVRLMKEIMRTGNWDLFERYADPNVRLEINGRDYIGRELASESLRHFVEEWGLDRVDVRVEHSSFQGDKAHSKINTDFNGQERTVHYDVLKVDGRWIVQRVRIE
- protease stability score: 2.06

Sequence: SELEQMWREAKETIEKINKTGDPRSLLENADPTVRTDYGEKDYHGREEFKKFLEWLGIKHIKDVRFRDFEVQGDKIIHDSEVDVEVGDKEFRIKSIVIALKVDGRWLITRLVFK
- protease stability score: 1.9

Sequence: SELERDAEMAFKIYKHNIETGNEEELDKLVDPNVRLEAENHSTHGREDWYNLMRHFGVKHTDVKDFRIQGDKIHLHGVLHFNGRTFKITLYVHKFDGRWHIKSVEVH
- protease stability score: 0.364

Sequence: SELERHAKEIAKIFSEVESTGDEDRMWELVDPDVRLHVGDKEFHGMEWVITLIREHLRHIRLKHVEITHIRVIDGRVDVDTRIHGIINGRELVTKSRIIIDKINGRWLVSSLKYE
- protease stability score: 1.15

Sequence: SELERLIMEMLHLLIELWLTGDEETLSKLIDPNTRLIVIQGDKHIIVHGRELVLHIMRRIREEIRFEDSRIRSMDAQGNKASINEEMHFRIGDKEVRFEREVEVWVIDGKLHSLVIRIK
- protease stability score: 0.871

Sequence: SELERQIERANRELVDIIYTGDEHLVDRMLDPRTLLTVGDKHTIGREEMIEWFKHHIREMRIRHSDTKDPHFINGVIDSHLYLDMEFDGRRFISRTRLIVLKIDGRWHIERITII
- protease stability score: 0.687

Sequence: SELHEDAEEIAKQFSRAWTTGDFEELDKLFDPNARIEYGDYEVHGRHIVSKFLRQIRIKEVRFIVRRVEHYDGRIRLWGELTLHGNINGRDFDLHTKSDLLVIKIDGRWVVEQYIIR
- protease stability score: 1.47

Sequence: SELHEEAEELTEKIIRILLTGNEHFFSELVDPDVRTNVDGKELHGREEALRKFEEMRRKLGYDRVRVELRKYTVFDGRVEVVTELNVNGRRLEYIWRMHKVDGRWSLHIWEIR
- protease stability score: 2.65

Sequence: SELHEEIHKMVQEFLELFLTGDFHRIKQLMDPNVKLIYGDKLFHGRENVEKLHEELRWRYKNATIHVDLREITIFENRAVTDTSIEFDVNGKHISHETKVIIEKIDGQWVIKSIYIN
- protease stability score: 2.13

Sequence: SELHEEVRHIAEQWVKSWITGDEHLLQKLADPHVRFKIGDKSNHGRENVIKEIRRLEEEHGAEERIIITHVRVVGDKYELHGTYELRIGDKHETRHLHIEIWVVNGVVKEIDIQID
- protease stability score: 1.07

Sequence: SELHEKLKRDMDILEELLLTGDWEKLLKYIDPHARLEIGDKEVHGREILSEVFRDVFERIKNARIHIEHSEAINGRFDIHSEWIVNGKNRRVHIETVVINGRVDKLYFEIRHR
- protease stability score: 1.05

Sequence: SELHKFAEELSRRWFEMVLTGDEDSLNELADPNVRNDVNGRELIGRESFAKWVKELRIEDVRHKRSRIEVQGDKMIIHMDIESVVTIDGVRRDQRYEIIIISRKVNGRWLVHSVEFRVE
- protease stability score: 1.18

Sequence: SELHKHVKHLAEHFWHLLETGDWEKMTKNADPNDRLDIHIGDKDIHNHGRERSLKTWTELEREMGIDHLTLRHRDLQGDKVIIHTESVFDGRHVKVEIIVVVINGRLKRVEVRFE
- protease stability score: 0.767

Sequence: SELIKVSRHAMEILVHSWLTGDWERSEELVDPHARTQYGDKHVHGMELFEEIFKEELDRVKGMRLEIIIRRVDLQGNKAEVDGEFRNHVNGVDVRRRMHVELVVVNGVVESTSIRIQ
- protease stability score: 0.453

Sequence: SELIRASETMMKAIADSEETGDWRLLRELFDPHVRIEIGDKKYHGWKYLKHFMEELRIESRTELEHVDTFDGKVRVEGTLTTDLRVNGQEHTINLDIRSIIVKIDGRWIIHKVKIH
- protease stability score: 1.14

Sequence: SELKEEVDRWAKRFIHAVETGDEDTILKFMDPHVKSSVGEKVHHGREFLIIIWRELRIRHFTVHHIRVDEDHLIIHMEWQGHVNGKEIRLEVDLFIRKVDGVWIMKHIEIR
- protease stability score: 2.03

Sequence: SELKEILRKAIELLLRLWVTGDEEELLELFDPNVKLVIGDKIFIGREEFEKVSRHARVKRSDINDFRVQGDKITYDTRMDGHVNGKDIDTTVDIIAVKIDGRWFNHSIIVH
- protease stability score: -0.093

Sequence: SELKESATDIMRIYIEAWLTGDFEEITRLADPRMRVINDFNGRTQVNHGRELFRETLKHWRIKHVHIDDMRSFEGRSESHGTVHGQFNGVEDEVRFEVRMVVVDGVLHSMTIIFK
- protease stability score: 1.18

Sequence: SELKNWARIIAERVTDELNTGNEHRLRELFDPNVKIRIDGRDFHGMDTLRRFFEELRITHTHWEHKDMHLIGDKALLHGTLKINILQGDKTHETTFDVRIFVIKVNGRWSYEHMEID
- protease stability score: 1.22

Sequence: SELKQAIDDLIRRFEHIYHTGNEEIWERLADPNTRIDIDGQEIIGREQATRERREEMKKLGVERVEVELRLRNVEVVGNKLHLDGELILRYGDKTVVIDSKINLQKINGRWVIREEIYH
- protease stability score: 1.04

Sequence: SELNEISEEAVEWFRKVLLTGNEDLLLNLADPNVRYEVGDKRRVGRESMIEQIQHFLHEMGINHIHSVHIRDVRIQGDYIEVDSELETTVNGQKMYIHMFLRARKIDGKWILDRIYVH
- protease stability score: 1.02

Sequence: SELNEKLKHLIELHWRVLETGDEHMMTRLLDPHARLEYGDKELHGREEVTHWHYEILEKVKNLQIHLSDYRIVNGQIHLHVVENVNGVTTRRFINIEKIDGRWHDREIRIE
- protease stability score: 0.757

Sequence: SELNHSVRRAIEIFERVSKTGDEREIRDLADPNVKLDFDGREHHGWEWFVRFMKEIRIKDHRIRDVELIGEFVIIHGELEMEINGVDIRTEVEFYVFKINGKWYLKRLIIR
- protease stability score: 1.92

Sequence: SELSEDLDMYIKIFLRHTETGDEESVRDFADPHAKLEIGDKTFHGRETFLDWFLDLRDRIPNITVRIHEVRIIGDKIHIDLEIIIGEKRTRIHLKIFKVDGVWVLKSLRIN
- protease stability score: 1.58

Sequence: SEMDEASKLALKLLEHMVRTGDEHLSEHLVDPHARLFQGDKVEWGRERMTRQLHEWRVRDFKLKRVHVYNGRIEVDGVLNGTVDGVDENRDVRLIITKIDGQWLIKSVIIE
- protease stability score: 0.474

Sequence: SEMDENIHEALKEEMHAWVTGDFDKIEHLLDPNTRVEQGEFIYHGRFFVEFVRRRVDHVFWHHVEIRHIENVDGRMIIDGIVDFEETAENHRHRHTIRTIIYLEKIDGKWYIRSLEVK
- protease stability score: 0.874

Sequence: SEMEDIAEEWAELILHLWHTGDEDKLWKLADPNTREHVNGRNLHGREEIVRIIVHEMVEMRIKFRPHDVRVQGDKVIIDGIKEIHIDGKEIRIRIEIVIVVINGRYHSSELTVH
- protease stability score: 1.04

Sequence: SEMEEESHKVVEYATHVFATGDEHLMRKNFDPDVKLDYNGKHFHGWEEFVKLMQTLREKYGVKHVKRVEIEDIRIIGNKVEVDTRVVQNVDGVPFELEITLILIKIDGKWRNHSSRIR
- protease stability score: 0.037

Sequence: SEMEEEVRRAMKSFIKDLETGNEKSNHENVDPHARLLINGQEFHGMEHVSRWINKAGIDHFEIDEFRIIGNKIRIDGTITFNGQQHKVRIDVVKVDGRWLVKSLEII
- protease stability score: 1.29

Sequence: SEMEEHAERVWRIMLTLLLTGDEEKFNHLADPNTRLIIIIGDKELHFHGRHEISNYLHRYLREIRIDHFHEHSITVQGNWVHTDGIMLGRFDGKRHEIRVHIHLIVIDGRIKEIYLENR
- protease stability score: 1.64

Sequence: SEMEETAKTVYKRWFDMLHTGDEELLTRFMDPHVRVQQGDKEIVGWELVVTHNRHLRYEDSHLKDIETQGDKVIIRGELVLTIGDKRFTIDVEILAQKVDGRWILKSVRFS
- protease stability score: 0.035
